Publication PMC6339671, “NudCL2 is an Hsp90 cochaperone to regulate sister chromatid cohesion by stabilizing cohesin subunits” (Cellular and Molecular Life Sciences: CMLS, 2018)

Experiments:
His-Smc1α = molecular target: T1, His-Smc1α (human, UniProt Q14683 1-1233); assay: pull-down; GST or GST-NudCL2 protein incubated with each of the purified His-tagged cohesin subunits from Sf9 cells; Western analysis; conditions: both partners purified
T1 construct: Full-length human SMC1A cloned by RT-PCR into pFastBac-HT A (His-tag vector); pFastBac-HT A is recalled to add the His tag at the N-terminus; also called His-tagged Smc1α; SMC1A; source: Sf9 insect cells (Bac-to-Bac baculovirus), purified with nickel-nitrilotriacetic acid beads
T1 sequence (looked up): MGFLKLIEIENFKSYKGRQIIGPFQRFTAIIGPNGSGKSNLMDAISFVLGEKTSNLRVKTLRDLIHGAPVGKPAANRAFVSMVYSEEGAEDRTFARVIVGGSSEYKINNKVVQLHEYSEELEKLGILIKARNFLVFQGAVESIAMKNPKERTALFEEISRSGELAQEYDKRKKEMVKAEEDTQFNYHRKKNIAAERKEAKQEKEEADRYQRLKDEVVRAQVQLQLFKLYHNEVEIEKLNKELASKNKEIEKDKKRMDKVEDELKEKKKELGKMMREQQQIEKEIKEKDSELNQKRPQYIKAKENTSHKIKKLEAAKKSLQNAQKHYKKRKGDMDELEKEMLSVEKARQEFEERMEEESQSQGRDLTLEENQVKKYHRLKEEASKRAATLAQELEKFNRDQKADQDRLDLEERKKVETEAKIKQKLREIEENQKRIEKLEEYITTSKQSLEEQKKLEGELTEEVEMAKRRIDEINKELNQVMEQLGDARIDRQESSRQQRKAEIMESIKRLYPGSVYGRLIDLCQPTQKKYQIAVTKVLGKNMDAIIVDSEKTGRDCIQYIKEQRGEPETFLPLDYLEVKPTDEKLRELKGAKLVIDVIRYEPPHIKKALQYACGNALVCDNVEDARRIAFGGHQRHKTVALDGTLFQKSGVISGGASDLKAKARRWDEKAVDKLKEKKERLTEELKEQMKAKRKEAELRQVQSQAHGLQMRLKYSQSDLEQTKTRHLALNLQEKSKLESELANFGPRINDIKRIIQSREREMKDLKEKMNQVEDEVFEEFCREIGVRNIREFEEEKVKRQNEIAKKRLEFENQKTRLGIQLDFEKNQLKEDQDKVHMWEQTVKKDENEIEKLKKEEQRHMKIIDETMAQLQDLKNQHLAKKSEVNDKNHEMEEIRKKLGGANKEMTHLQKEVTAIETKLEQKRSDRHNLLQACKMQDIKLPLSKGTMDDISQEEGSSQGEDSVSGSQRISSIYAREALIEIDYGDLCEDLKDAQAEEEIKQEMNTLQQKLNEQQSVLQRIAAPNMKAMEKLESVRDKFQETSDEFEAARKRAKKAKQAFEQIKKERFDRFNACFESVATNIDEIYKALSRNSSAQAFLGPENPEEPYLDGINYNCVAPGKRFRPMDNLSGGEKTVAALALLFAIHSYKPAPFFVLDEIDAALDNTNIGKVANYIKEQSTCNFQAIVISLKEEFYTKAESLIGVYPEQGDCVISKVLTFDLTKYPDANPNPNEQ

His-Smc3 = molecular target: T2, His-Smc3 (human, UniProt Q9UQE7 1-1217); assay: as above; conditions: both partners purified
T2 construct: Full-length human SMC3 cloned by RT-PCR into pFastBac-HT A (His-tag vector); pFastBac-HT A is recalled to add the His tag at the N-terminus; also called His-tagged Smc3; source: Sf9 insect cells (Bac-to-Bac baculovirus), purified with nickel-nitrilotriacetic acid beads
T2 sequence (Q9UQE7 whole entry): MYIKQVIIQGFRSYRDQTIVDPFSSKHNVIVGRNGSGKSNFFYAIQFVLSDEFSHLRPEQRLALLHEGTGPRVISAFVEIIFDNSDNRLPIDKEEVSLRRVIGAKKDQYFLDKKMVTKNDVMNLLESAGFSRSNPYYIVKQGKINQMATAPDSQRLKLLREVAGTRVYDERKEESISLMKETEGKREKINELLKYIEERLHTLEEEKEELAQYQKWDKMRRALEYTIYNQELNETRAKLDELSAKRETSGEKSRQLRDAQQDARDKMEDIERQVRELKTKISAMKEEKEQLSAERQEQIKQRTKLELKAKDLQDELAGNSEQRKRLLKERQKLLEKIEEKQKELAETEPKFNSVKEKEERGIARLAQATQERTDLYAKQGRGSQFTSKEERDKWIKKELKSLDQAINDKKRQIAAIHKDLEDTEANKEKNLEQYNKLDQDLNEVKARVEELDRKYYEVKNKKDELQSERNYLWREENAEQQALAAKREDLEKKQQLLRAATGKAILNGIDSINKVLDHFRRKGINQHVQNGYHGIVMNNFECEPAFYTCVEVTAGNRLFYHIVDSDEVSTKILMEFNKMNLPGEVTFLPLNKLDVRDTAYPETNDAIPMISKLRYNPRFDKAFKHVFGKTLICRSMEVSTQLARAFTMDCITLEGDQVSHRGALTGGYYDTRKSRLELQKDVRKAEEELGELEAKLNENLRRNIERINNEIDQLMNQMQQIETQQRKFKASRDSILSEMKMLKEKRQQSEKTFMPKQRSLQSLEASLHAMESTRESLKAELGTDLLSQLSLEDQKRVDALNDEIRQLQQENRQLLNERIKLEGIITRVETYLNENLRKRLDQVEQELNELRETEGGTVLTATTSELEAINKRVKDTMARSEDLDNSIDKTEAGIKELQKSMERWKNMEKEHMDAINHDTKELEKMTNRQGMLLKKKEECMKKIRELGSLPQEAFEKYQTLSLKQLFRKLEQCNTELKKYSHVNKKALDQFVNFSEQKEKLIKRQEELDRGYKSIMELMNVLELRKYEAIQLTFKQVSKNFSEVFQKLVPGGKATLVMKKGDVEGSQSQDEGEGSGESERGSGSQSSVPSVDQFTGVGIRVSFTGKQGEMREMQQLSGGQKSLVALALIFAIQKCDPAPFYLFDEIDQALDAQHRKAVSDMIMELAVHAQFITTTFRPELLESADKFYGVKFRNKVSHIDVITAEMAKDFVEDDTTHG

B1: GST-NudCL2 (natural protein, human, UniProt Q8WVJ2 1-157, looked up)
chain: MSAPFEERSGVVPCGTPWGQWYQTLEEVFIEVQVPPGTRAQDIQCGLQSRHVALSVGGREILKGKLFDSTIADEGTWTLEDRKMVRIVLTKTKRDAANCWTSLLESEYAADPWVQDQMQRKLTLERFQKENPGFDFSGAEISGNYTKGGPDFSNLEK
notes: NudCL2 (NudC-like protein 2), human; also called NudC-like protein 2; source: purified from bacteria
binding result (His-Smc1α): binds
binding result (His-Smc3): binds
